Where no end group is shown, it is not given here.
Target: T1, Recombinant microbial transglutaminase (mTG) (Streptoverticillium mobaraense, UniProt P81453 77-407)
T1 sequence (looked up): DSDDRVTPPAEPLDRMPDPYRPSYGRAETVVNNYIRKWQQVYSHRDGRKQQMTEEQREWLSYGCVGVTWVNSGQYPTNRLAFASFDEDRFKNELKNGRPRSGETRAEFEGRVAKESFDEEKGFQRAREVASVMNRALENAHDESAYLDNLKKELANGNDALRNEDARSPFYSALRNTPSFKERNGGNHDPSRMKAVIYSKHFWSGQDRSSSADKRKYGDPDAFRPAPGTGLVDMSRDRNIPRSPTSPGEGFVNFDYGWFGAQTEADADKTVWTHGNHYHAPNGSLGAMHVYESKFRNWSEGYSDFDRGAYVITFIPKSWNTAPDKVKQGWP
Test: cell-based or functional assay

Binder	Kmapp
YEAQR (also: biotinylated, position not given here) [BEST3]	0.08 µM
DVYSQH (also: biotin tag, position not given here) [bDH6Q5]	33.1 µM
YEIQR (also: biotinylated, position not given here) [BEST1]	0.086 µM
WPAQR (also: biotinylated, position not given here) [BEST4]	0.225 µM
HDLMWPDVYSQH (also: biotin tag, position not given here) [bHH12Q11]	3.08 µM
FWIQE (also: biotin tag, position not given here) [bFE5Q4]	5 µM
YEAQK (also: biotinylated, position not given here) [BEST2]	0.114 µM

Results, then the binder that gave them:

Kmapp	Binder
14.8 µM	PLVQSH (also: biotin tag, position not given here) [bPH6Q4]
11.4 µM	WPDVYSQH (also: biotin tag, position not given here) [bWH8Q7]
> 50 µM	SPLKHQEY (also: biotin tag, position not given here) [bSY8Q6]
172 µM	LLTLPSVQEQN (also: biotin tag, position not given here) [bLN11Q8-10]

Reference: patent publication US20160361434A1 (COVALAB, published 2016)
